Results published in PMC7687889.

Target: human EphA2 ligand-binding domain (LBD) (human) (UniProt P29317)
Experiment: SPR

Chain of KSHV gHgL (Kaposi sarcoma-associated herpesvirus glycoprotein H / glycoprotein L complex) (F5HAK9 22-698): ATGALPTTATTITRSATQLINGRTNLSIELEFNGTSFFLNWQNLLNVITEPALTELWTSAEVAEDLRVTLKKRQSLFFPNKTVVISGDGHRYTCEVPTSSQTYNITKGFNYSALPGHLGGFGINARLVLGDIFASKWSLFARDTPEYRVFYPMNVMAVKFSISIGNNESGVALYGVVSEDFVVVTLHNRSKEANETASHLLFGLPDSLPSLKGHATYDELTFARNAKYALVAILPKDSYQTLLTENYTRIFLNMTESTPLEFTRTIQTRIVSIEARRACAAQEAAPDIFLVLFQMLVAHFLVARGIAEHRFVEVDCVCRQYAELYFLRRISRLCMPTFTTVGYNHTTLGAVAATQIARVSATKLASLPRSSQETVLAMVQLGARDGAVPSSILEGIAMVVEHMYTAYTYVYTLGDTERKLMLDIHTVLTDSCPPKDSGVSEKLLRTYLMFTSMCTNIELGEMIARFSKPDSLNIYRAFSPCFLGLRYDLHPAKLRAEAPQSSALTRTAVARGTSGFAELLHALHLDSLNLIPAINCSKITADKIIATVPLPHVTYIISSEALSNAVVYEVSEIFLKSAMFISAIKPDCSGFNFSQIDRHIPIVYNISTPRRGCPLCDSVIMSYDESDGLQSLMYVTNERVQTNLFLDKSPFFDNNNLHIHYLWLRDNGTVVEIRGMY
Chain of KSHV gHgL (Kaposi sarcoma-associated herpesvirus glycoprotein H / glycoprotein L complex) (F5HDB7 21-167): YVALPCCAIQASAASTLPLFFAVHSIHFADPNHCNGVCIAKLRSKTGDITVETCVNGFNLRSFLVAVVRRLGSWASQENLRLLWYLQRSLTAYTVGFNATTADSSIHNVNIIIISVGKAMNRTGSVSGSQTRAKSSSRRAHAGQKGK
Chain of EBV gHgL (Epstein-Barr virus glycoprotein H / glycoprotein L complex) (P03231 18-679): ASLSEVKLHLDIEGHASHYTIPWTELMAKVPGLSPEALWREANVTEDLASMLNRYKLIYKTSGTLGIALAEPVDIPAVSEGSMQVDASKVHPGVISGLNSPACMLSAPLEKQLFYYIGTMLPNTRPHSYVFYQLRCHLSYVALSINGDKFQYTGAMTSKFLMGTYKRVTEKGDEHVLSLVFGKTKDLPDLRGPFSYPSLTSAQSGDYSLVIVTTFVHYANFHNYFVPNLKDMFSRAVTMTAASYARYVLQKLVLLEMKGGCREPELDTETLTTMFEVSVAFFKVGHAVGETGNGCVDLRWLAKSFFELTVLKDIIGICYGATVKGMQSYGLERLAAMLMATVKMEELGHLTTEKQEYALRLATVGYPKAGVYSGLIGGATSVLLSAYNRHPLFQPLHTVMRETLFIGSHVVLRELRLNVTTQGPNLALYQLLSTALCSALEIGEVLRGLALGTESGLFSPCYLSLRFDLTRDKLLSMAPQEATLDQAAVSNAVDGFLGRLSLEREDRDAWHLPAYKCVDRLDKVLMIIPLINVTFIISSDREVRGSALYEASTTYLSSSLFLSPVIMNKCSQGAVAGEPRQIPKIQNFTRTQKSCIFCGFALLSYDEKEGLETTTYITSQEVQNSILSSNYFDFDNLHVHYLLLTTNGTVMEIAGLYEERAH
Chain of EBV gHgL (Epstein-Barr virus glycoprotein H / glycoprotein L complex) (P03212 24-137): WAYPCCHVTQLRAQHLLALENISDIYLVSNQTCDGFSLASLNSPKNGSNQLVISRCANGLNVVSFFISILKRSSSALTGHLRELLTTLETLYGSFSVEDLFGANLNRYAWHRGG

Substance: EBV gHgL (Epstein-Barr virus glycoprotein H / glycoprotein L complex) (from UniProt P03231;P03212)
- Kd: 4120 nM

Substance: KSHV gHgL (Kaposi sarcoma-associated herpesvirus glycoprotein H / glycoprotein L complex) (from UniProt F5HAK9;F5HDB7)
- Kd: 17.5 nM
